Data taken from US20220064294A1 (ARCUS BIOSCIENCES, published 2022).

T1: human TIGIT, full length, on cells (human, UniProt Q495A1 22-244)
T1 construct: also called hTIGIT; hTIGIT-CHO
T1 sequence: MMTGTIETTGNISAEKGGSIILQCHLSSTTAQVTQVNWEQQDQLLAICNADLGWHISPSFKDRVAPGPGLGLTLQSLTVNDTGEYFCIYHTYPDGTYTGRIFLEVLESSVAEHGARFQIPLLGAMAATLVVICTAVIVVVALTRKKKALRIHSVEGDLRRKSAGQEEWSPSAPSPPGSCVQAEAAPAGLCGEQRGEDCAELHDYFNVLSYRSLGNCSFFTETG

T2: cTIGIT-His (cynomolgus monkey)
T2 construct: also called His-tagged cyno TIGIT protein extracellular domain; soluble cTIGIT-His
T2 chain: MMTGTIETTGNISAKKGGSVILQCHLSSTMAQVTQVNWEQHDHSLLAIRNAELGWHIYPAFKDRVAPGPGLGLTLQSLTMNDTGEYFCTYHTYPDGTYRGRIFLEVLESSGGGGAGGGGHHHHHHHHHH

T3: hTIGIT-His (human)
T3 construct: also called His-tagged human TIGIT protein extracellular domain; soluble hTIGIT-His
T3 chain: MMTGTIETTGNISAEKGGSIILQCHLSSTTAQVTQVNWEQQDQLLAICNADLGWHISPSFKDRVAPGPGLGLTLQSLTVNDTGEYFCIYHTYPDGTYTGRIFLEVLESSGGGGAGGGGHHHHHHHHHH

T4: soluble His-tagged TIGIT (Acro Biosystems, Cat #No. TIT-H52H3) (human, UniProt Q495A1 22-141)
T4 construct: Bought protein; also called His-tagged human TIGIT
T4 sequence (looked up): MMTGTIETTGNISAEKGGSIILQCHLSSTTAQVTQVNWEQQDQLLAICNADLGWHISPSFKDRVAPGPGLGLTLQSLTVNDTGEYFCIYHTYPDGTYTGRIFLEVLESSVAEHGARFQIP


Assays:
[1] = target: T5, cynomolgus monkey TIGIT, full length, on cells (cynomolgus monkey); assay: flow cytometry on cTIGIT-CHO cells
T5 construct: Whole entry of 312 amino acids; also called cyno TIGIT; cTIGIT
Experimental: (§1) These clones were further expanded, and antibodies were purified using a Protein G column. These purified antibodies were tested for binding to human and cyno TIGIT expressed on cell surface by flow cytometry. Stable CHO-K1 cell lines expressing full length human TIGIT clone 2A7 (Swiss-Prot Q495A1; SEQ ID NO: 80) or full length cyno TIGIT clone C10 (Swiss-Prot A0A2K5UW92; SEQ ID NO: 84) were developed. For the flow assay, cells were collected and incubated in 100 μL of HBSS buffer in the presence (or absence) of various concentrations of antibodies for 1 hr at 4° C. After washing with HBSS, antibody binding on cells was detected with 2 μg/mL of Alexa488-labeled goat anti-mouse IgG antibody (ThermoFisher Scientific, Cat #A-11001) for 30 min at 4° C. Cells were then washed and resuspended in PBS and subjected to flow cytometry using an Attune NxT flow cytometer (ThermoFisher Scientific, Waltham, Mass.). The geometric mean of the fluorescence intensity was obtained for the whole single cell population. Antibodies capable of binding to both human and cyno TIGIT expressed on cell surface were further tested for their blocking activity against recombinant human CD155 binding to human TIGIT on the surface of CHO cells. CHO-hTIGIT cells (10⁵ cells) were incubated with 2.5 μg/mL hCD155-Fc protein in the presence of various concentrations of antibody at room temperature for 1 hr. […] Cells were then washed and subjected to flow cytometry analysis.
(§2) The binding capability of these chimera anti-TIGIT antibodies to cell surface overexpressed human and cyno TIGIT was confirmed utilizing the flow cytometry assay previously described. After incubation of chimera anti-TIGIT antibody with hTIGIT-CHO or cTIGIT-CHO, bound antibody was detected using Alexa488 conjugated goat anti-human IgG antibody (ThermoFisher Scientific, Cat #A-11013). Antibody functional activity in inhibiting recombinant hCD155-hFc binding to hTIGIT-CHO-K1 cells was also determined using flow assay as previously described.

[2] = target: T1, human TIGIT, full length, on cells; assay: flow cytometry on hTIGIT-CHO cells
Experimental: as §1, §2

[3] = target: T1, human TIGIT, full length, on cells; assay: flow cytometry, endogenous TIGIT on isolated human CD4+ T cells
Experimental: (§3) The ability of chimera anti-TIGIT antibodies to bind to endogenously expressed TIGIT on isolated human CD4⁺ and CD8⁺ cells was tested using a flow cytometry assay. Human CD4⁺ or CD8⁺ T cells were isolated from human whole blood using RosetteSep™ Human CD4⁺ T cell Enrichment Cocktail (Stemcell, Cat #15022) or Human CD8⁺ T cell enrichment Cocktail (Stemcell, […]), respectively. […] However, differences in max binding activity (MFImax) was observed between clones.

[4] = target: T1, human TIGIT, full length, on cells; assay: flow cytometry, endogenous TIGIT on isolated human CD8+ T cells
Experimental: as §3

[5] = target: T1, human TIGIT, full length, on cells; assay: flow cytometry, inhibition of hCD155-hFc binding to hTIGIT-CHO-K1 cells
Experimental: as §1, §2

cTIGIT-His = target: T2, cTIGIT-His; assay: SPR, Biacore T200, antibody captured on anti-human IgG chip, cTIGIT-His as analyte
Experimental: (§4) The purified, full-length antibodies Hu24F8.1-IgG1.AA (containing VH1+VL2) and Hu24F8.2-IgG1.AA (containing VH2+VL2), together with the full-length chimera antibody of 24F8 mouse VH+VL and human IgG1/kappa constant domains (Ch24F8), were analyzed by SPR using a Biacore T200 instrument with antibody capture using an anti-human IgG coated chip and soluble hTIGIT-His or cTIGIT-His as the analyte.

hTIGIT-His = target: T3, hTIGIT-His; assay: SPR, Biacore T200, antibody captured on anti-human IgG chip, hTIGIT-His as analyte
Experimental: as §4

[6] = target: T4, soluble His-tagged TIGIT (Acro …); assay: SPR, ProteOn XPR36, antibody on Protein A chip, soluble His-tagged TIGIT as analyte, 25 C
Experimental: The kinetic binding of these recombinant anti-TIGIT antibodies to human TIGIT was determined by surface plasmon resonance (SPR) using a Bio-Rad ProteOn XPR36 instrument. Recombinant antibodies were immobilized using a Protein A coated GLC sensor chip, and soluble His-tagged TIGIT (Acro Biosystems, Cat #No. TIT-H52H3) was used as the analyte. The binding constants were determined at 25° C.

[7] = target: T5, cynomolgus monkey TIGIT, full length, …; assay: flow cytometry on CHO-K1 cells expressing cyno TIGIT
Experimental: as §1

[8] = target: T1, human TIGIT, full length, on cells; assay: flow cytometry on CHO-K1 cells expressing human TIGIT
Experimental: as §1

[9] = target: T1, human TIGIT, full length, on cells; assay: flow cytometry, inhibition of hCD155-Fc binding to CHO-hTIGIT cells
Experimental: as §1

Row | EC50 [1] [nM] | EC50 [2] [nM] | CD4+ MFImax [3] [MFI] | EC50 [3] [nM] | CD8+ MFImax [4] [MFI] | EC50 [4] [nM] | IC50 [5] [nM] | Kd (cTIGIT-His) [nM] | koff (cTIGIT-His) [s⁻¹] | kon (cTIGIT-His) [M⁻¹ s⁻¹] | Kd (hTIGIT-His) [nM] | koff (hTIGIT-His) [s⁻¹] | kon (hTIGIT-His) [M⁻¹ s⁻¹] | Kd [6] [nM] | koff [6] [s⁻¹] | kon [6] [M⁻¹ s⁻¹] | EC50 [7] [nM] | EC50 [8] [nM] | IC50 [9] [nM] | Binder
1 | 0.199 | 0.15 | 210 | 0.13 | 5800 | 0.177 | 0.62 | 1.66 | 0.00109 | 658000 | 0.183 | 0.000156 | 853000 | 0.035 | 7.5e-05 | 2.15e+06 | – | – | – | Ch24F8 (antibody, human IgG1, V domains shown, also called full-length chimera antibody of 24F8 mouse VH+VL and human IgG1/kappa constant domains) VH: DVQLQESGPDLVKPSQSLSLTCTVTGYSITSGYSWHWIRQFPGNKLDWMGYVHYSGSTNYNPSLKSRISITRDTSKNQFFLQLNSVTTEDTATFYCARMDYGNYGGAMDYWGQGTSVTVSS VL: EIVMTQSHKFMSTSVGDRVSITCKASQDVRTAVAWYQQKPGQSPKLLIYSASYRYTGVPDRFTGSGSGTDFTFTISSVQAEDLAVYYCQQYYSTQWTFGGGTKLEIK
2 | – | – | – | – | – | – | – | – | – | – | – | – | – | – | – | – | 1.17 | 0.825 | 2.19 | 30M18 (antibody, V domains shown, Mouse monoclonal antibody purified from hybridoma on Protein G; also called mAb 30M18; mouse anti-TIGIT clone 30M18) VH: EVQLQQSGPELVKPGASVKISCKTSGYTFTEYTMHWVKQSHGKSLEWIGGINPNNGGTSYNQKFKGKATLTVDKSSSTAYMELRSLTSEDSAVYYCARSGHMDYGYVYWGQGTTLTVSS VL: DIVMTQSHKFMSTSVGDRVSITCKASQYVSTAVAWYQQKPGQSPKLLIYSPSYRYTGVPDRFTGSGSGTDFTFTISSVQAEDLAVYYCQQHYSTPWTFGGGTKLEIK
3 | 6.14 | 0.336 | 125 | 0.197 | 3500 | 0.293 | 2.18 | – | – | – | – | – | – | 2.38 | 0.00173 | 727000 | – | – | – | Ch30M18 (antibody, human IgG1, V domains shown, also called recombinant anti-TIGIT mouse/human chimera antibody 30M18) VH: EVQLQQSGPELVKPGASVKISCKTSGYTFTEYTMHWVKQSHGKSLEWIGGINPNNGGTSYNQKFKGKATLTVDKSSSTAYMELRSLTSEDSAVYYCARSGHMDYGYVYWGQGTTLTVSS VL: DIVMTQSHKFMSTSVGDRVSITCKASQYVSTAVAWYQQKPGQSPKLLIYSPSYRYTGVPDRFTGSGSGTDFTFTISSVQAEDLAVYYCQQHYSTPWTFGGGTKLEIK
4 | 0.212 | 0.131 | 125 | 0.073 | 4500 | 0.117 | 0.7 | – | – | – | – | – | – | 3.85 | 0.0214 | 5.57e+06 | – | – | – | Ch5J24 (antibody, human IgG1, V domains shown, also called recombinant anti-TIGIT mouse/human chimera antibody 5J24) VH: QVQLQQSGAELVRPGTSVKMSCKAAGYTFTNHWIGWVKQRPGHGLEWIGDIYPGGGYTNYNEKFKGKATLTADTSSSTAYMYLSSLTSEDSAIYYCARSYGYDLYAMDYWGQGTSVTVSS VL: DIQMTQSPSSLSASLGERVSLTCRASQEISGYLSWLQQKPDGTIKRLIYAASTLGSGVPKRFSGSRSGSDYSLTISSLESEDFADYYCLQYDSYPFTFGAGTKLELK
5 | 0.18 | 0.102 | 150 | 0.029 | 4500 | 0.062 | 0.8 | – | – | – | – | – | – | 7.1 | 0.074 | 1.05e+07 | – | – | – | Ch21B9 (antibody, human IgG1, V domains shown, also called recombinant anti-TIGIT mouse/human chimera antibody 21B9) VH: EVQLVESGGGLVKPGGSLKLSCTASGFTFSSYAMSWVRQSPEKRLEWVAEISSGGSYTYYTDTVTGRFTISRDNAKNTLYLEMSSLRSEDTAMYYCARKRRDYYGMDYWGQGTSVTVSS VL: DVQITQSPSYLAASPGETITINCRASKSISKYLAWYQEKPGKTNKLLIYSGSTLQTGIPSRFSGSGSGTDFTLTISSLEPEDFAMYYCQQHNEYPWTFGGGTKLEIK
6 | 0.24 | 0.16 | 140 | 0.097 | 5000 | 0.175 | 1.16 | – | – | – | – | – | – | 9.78 | 0.0141 | 1.44e+06 | – | – | – | Ch22B22 (antibody, human IgG1, V domains shown, Expressed in HEK293, purified on Protein A; also called recombinant anti-TIGIT mouse/human chimera antibody 22B22) VH: EVQLVESGGGLVKPGGSLKLSCAASGFTFSSYAMSWVRQSPEKRLEWVAEISSGGSYTYYPDTVTGRFTISRDNAKNTLYLEMSSLRSEDTAMYYCARKRRDYYAMDYWGQGTSVTVSS VL: DVQITQSPSYLAASPGETITINCRASKSISKYLAWYQEKPGKTNKLLIYSGSTLQSGIPSRFSGSGSGTDFTLTISSLEPEDFAMYYCQQHNEYPWTFGGGTKLEIK
7 | 0.358 | 0.159 | 190 | 0.141 | 7200 | 0.249 | 0.48 | – | – | – | – | – | – | 0.904 | 0.00113 | 1.26e+06 | – | – | – | Ch28O12 (antibody, human IgG1, V domains shown, also called recombinant anti-TIGIT mouse/human chimera antibody 28O12) VH: EVQLVESGGGLVKPGGSLKLSCAASGFTFSNYAMSWVRQSPEKRLEWVAEISGGGSYTYHPDTVTGRFTISRDNAKNTLYLEMSSLRSEDTAMYYCARKRRDYYAMDYWGQGTSVTVSS VL: DVQITQSPSYLAASPGETITINCRASKSISKYLAWYQEKPGKTNKLLIYSGSTLQSGIPSRFSGSGSGTDFTLTISSLEPEDFAMYYCQQHNEYPWTFGGGTKLEIK
8 | 0.42 | 0.12 | 180 | 0.119 | 5200 | 0.16 | 0.2 | – | – | – | – | – | – | 6.3 | 0.00929 | 1.47e+06 | – | – | – | Ch21B16 (antibody, human IgG1, V domains shown, also called recombinant anti-TIGIT mouse/human chimera antibody 21B16) VH: EVQLVESGGGLVKPGGSLKLSCAASGFTFSTYAMSWVRQSPEKRLEWVAEISSGGTYTYFPDTVTGRFTISRDNAKNTLYLEMSSLRSEDTAMYYCARKRRDYYAMDYWGQGTSVTVSS VL: DVQITQSPSYLAASPGETITINCRASKSISKYLAWYQEKPGKTNKLLIYSGSTLQSGIPSRFSGSGSGTDFTLTISSLEPEDFAVYYCQQHNEYPWTFGGGTKLEIK
